Test results taken from patent CN111196850A.
Like-named read-outs stand apart in the source and are kept apart here.

Assays:
rhTSLP-hFc (human) [1] = test: cell-based or functional assay
rhTSLP-hFc (human) [2] = test: cell-based or functional assay; remark: listed apart in the source

Chain of rhTSLP-hFc (human) (chain, as listed by the source limits assumed): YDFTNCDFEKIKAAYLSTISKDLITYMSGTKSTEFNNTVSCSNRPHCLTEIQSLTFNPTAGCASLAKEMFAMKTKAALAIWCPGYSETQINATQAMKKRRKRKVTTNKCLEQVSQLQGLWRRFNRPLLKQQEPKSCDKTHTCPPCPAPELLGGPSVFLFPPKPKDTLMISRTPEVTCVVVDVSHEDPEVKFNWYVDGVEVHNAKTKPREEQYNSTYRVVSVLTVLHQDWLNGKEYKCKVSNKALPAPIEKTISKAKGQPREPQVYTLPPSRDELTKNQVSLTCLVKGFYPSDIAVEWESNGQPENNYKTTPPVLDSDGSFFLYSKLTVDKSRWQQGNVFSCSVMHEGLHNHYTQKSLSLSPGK

“人TSLP单抗Tezepelumab/MEDI9929(Amgen) (antibody)” showed an IC50, 抑制TSLP刺激的293F转染细胞STAT5-荧光素酶活性 (rhTSLP-hFc (human) [1]) of 5.72 µg/mL and an IC50, 抑制TSLP刺激的293F转染细胞STAT5-荧光素酶活性 (rhTSLP-hFc (human) [2]) of 7.04 µg/mL.
